Our source for the Kd values is the Immune Epitope Database (IEDB).

The target of assay [1] is HLA-B*57:01. Put plainly: IEDB peptide-MHC binding, purified MHC/competitive/radioactivity; filed as Kd, often an IC50 or EC50 that approximates it; ≥ and ≤ were set here for values at or beyond the usual limits of such assays.
For a further assay, the target named is HLA-B*53:01. The assay is described as above.
The next assay deals with HLA-B*35:01. Described as above. As to conditions: source organism: Dengue virus 1 Singapore/S275/1990.
The target in assay [2] is HLA-B*58:01. The description is as above.
Another assay concerns the target HLA-A*11:01. Described as above. As to conditions: source organism: Dengue virus 1 Singapore/S275/1990.
Assay [3] addresses HLA-A*03:01. Described as above. As to conditions: source organism: Dengue virus 1 Singapore/S275/1990.
The next assay concerns the target HLA-A*02:19. Put plainly: IEDB peptide-MHC binding, purified MHC/direct/fluorescence; filed as Kd, often an IC50 or EC50 that approximates it; ≥ and ≤ were set here for values at or beyond the usual limits of such assays.
The next assay deals with HLA-A*02:03. Described as above.
The next assay has as its target HLA-A*68:02. The assay is described as above.
Assay [4] has as its target HLA-A*03:01. Described as above.
Another assay concerns the target HLA-A*02:16. The assay is described as above.
In assay [5] the target is HLA-A*26:01. Described as above.
Another assay deals with HLA-A*02:11. The assay is described as above.
A further assay deals with HLA-A*02:12. The assay is described as above.
Another assay addresses HLA-A*02:01. Put plainly: IEDB peptide-MHC binding, purified MHC/competitive/fluorescence; filed as Kd, often an IC50 or EC50 that approximates it; ≥ and ≤ were set here for values at or beyond the usual limits of such assays.
The target in assay [6] is HLA-B*57:01. The assay is described as above.
The next assay addresses HLA-B*39:01. The description is as above.
Another assay has as its target HLA-B*27:03. The assay is described as above.
The target of another assay is HLA-B*18:01. The description is as above.
The target in a further assay is HLA-A*69:01. Described as above.
A further assay concerns the target HLA-B*51:01. Described as above.
A further assay deals with HLA-B*46:01. The description is as above.
Another assay deals with HLA-A*24:03. Put plainly: IEDB peptide-MHC binding, purified MHC/direct/fluorescence; filed as Kd, often an IC50 or EC50 that approximates it; ≥ and ≤ were set here for values at or beyond the usual limits of such assays.
In assay [7] the target is HLA-A*03:01. In words: IEDB peptide-MHC binding, purified MHC/competitive/fluorescence; filed as Kd, often an IC50 or EC50 that approximates it; ≥ and ≤ were set here for values at or beyond the usual limits of such assays. As to conditions: source organism: Four Corners hantavirus.
Assay [8] addresses HLA-A*26:01. Described as above.
For assay [9], the target named is HLA-B*15:17. Described as above.
Assay [10] has as its target HLA-B*57:01. In words: IEDB peptide-MHC binding, purified MHC/direct/fluorescence; filed as Kd, often an IC50 or EC50 that approximates it; ≥ and ≤ were set here for values at or beyond the usual limits of such assays.
For assay [11], the target named is HLA-B*15:17. The assay is described as above.
Assay [12] addresses HLA-B*58:01. The description is as above.
In the next assay the target is HLA-B*15:01. In words: IEDB peptide-MHC binding, purified MHC/competitive/fluorescence; filed as Kd, often an IC50 or EC50 that approximates it; ≥ and ≤ were set here for values at or beyond the usual limits of such assays. The following applies: source organism: Reston ebolavirus.
Another assay has as its target HLA-A*01:01. Put plainly: IEDB peptide-MHC binding, purified MHC/competitive/radioactivity; filed as Kd, often an IC50 or EC50 that approximates it; ≥ and ≤ were set here for values at or beyond the usual limits of such assays. As to conditions: source organism: Dengue virus 1 Brazil/97-11/1997.
Setting [13] is: source organism: Dengue virus 3 Martinique/1243/1999.
Where [14] appears, read: source organism: Dengue virus 1 Singapore/S275/1990.
Where [15] appears, read: source organism: Orthohantavirus andesense.
[16] abbreviates: source organism: Dengue virus 1 Brazil/97-11/1997.
Where [17] appears, read: source organism: Dengue virus 4 Philippines/H241/1956.
Where [18] appears, read: source organism: Limestone Canyon virus.
[19] abbreviates: source organism: Four Corners hantavirus.
The mark [20] stands for this setting: source organism: Araucaria virus.
Where [21] appears, read: source organism: Escherichia coli O157:H7.
Setting [22] is: source organism: Dengue virus 3 Sri Lanka/1266/2000.
[23] abbreviates: source organism: Listeria monocytogenes FSL N3-165.
[24] abbreviates: source organism: Reston ebolavirus.

Bounds are passed on as bounds.

As usually defined, the Kd is the concentration at which binding is half-saturated. Consider PTSYLDVDLH, for which the Kd in the assay with HLA-B*57:01 [1] (setting [13]) is not below 37.4 µM.
On to PASAWTLYAV, for which the equilibrium dissociation constant (Kd) in the assay with HLA-B*57:01 [1] (source organism: Dengue virus 2 Jamaica/1409/1983) is 1.11 µM.
As for MASSVLLWM, the figures for the equilibrium dissociation constant (Kd) in the assay with HLA-B*53:01 (setting [14]), in the assay with HLA-B*35:01 and with HLA-B*58:01 [2] (setting [14]) were 0.00061 µM, 0.0566 µM and 0.0003 µM, respectively.
For ASSMVNGVVK, the figures for the Kd with HLA-A*11:01, in the assay with HLA-A*03:01 [3] and in the assay with HLA-B*58:01 [2] (setting [14]) were 0.0304 µM, 0.325 µM and 2.79 µM, respectively.
Turning to IASSGMLWMA, the values for the Kd with HLA-B*57:01 [1] (setting [13]) and in the assay with HLA-B*58:01 [2] (setting [13]) were 10.4 µM and 1.02 µM, respectively.
With AVEDFLAFF, the Kd in the assay with HLA-A*02:19 (setting [15]) was not below 20 µM; with HLA-A*02:03 (setting [15]) it was not below 20 µM; with HLA-A*68:02 (setting [15]), not below 20 µM; with HLA-A*03:01 [4] (setting [15]), not below 20 µM; in the assay with HLA-A*02:16 (setting [15]), not below 20 µM; with HLA-A*26:01 [5] (setting [15]), 1.39 µM. Besides, the dissociation constant (Kd) with HLA-A*02:11 (setting [15]), with HLA-A*02:12 (setting [15]), with HLA-A*02:01 (setting [15]), in the assay with HLA-B*57:01 [6] (setting [15]), in the assay with HLA-B*39:01 (setting [15]) and in the assay with HLA-B*27:03 (setting [15]) was not below 20 µM in each case. The dissociation constant (Kd) in the assay with HLA-B*18:01 (setting [15]), in the assay with HLA-A*69:01 (setting [15]), with HLA-B*51:01 (setting [15]) and with HLA-B*46:01 (setting [15]) was not below 20 µM each time.
As for LTSREVLLLT, the equilibrium dissociation constant (Kd) was 0.712 µM in the assay with HLA-B*57:01 [1] (setting [16]) and 0.409 µM with HLA-B*58:01 [2] (setting [16]).
Regarding YATQTVGPW, the Kd came to 0.605 µM with HLA-B*57:01 [1] (setting [17]), 0.0279 µM with HLA-B*53:01 (setting [17]) and 0.0168 µM with HLA-B*58:01 [2] (setting [17]).
For KLKKKSAFY, the Kd in the assay with HLA-A*24:03 (setting [18]), with HLA-A*02:19 (setting [18]), with HLA-A*02:03 (setting [18]), with HLA-A*68:02 (setting [18]), with HLA-A*02:16 (setting [18]) and with HLA-A*02:11 (setting [18]) was not below 20 µM throughout. Further, the dissociation constant Kd was not below 20 µM in the assay with HLA-A*02:12 (setting [18]); not below 20 µM with HLA-A*02:01 (setting [19]); not below 20 µM in the assay with HLA-B*57:01 [6] (setting [19]); not below 20 µM with HLA-B*39:01 (setting [19]); not below 20 µM with HLA-B*27:03 (setting [19]); 0.0451 µM with HLA-A*03:01 [7]. For the same sequence, the Kd with HLA-A*26:01 [8] (setting [19]), in the assay with HLA-B*15:17 [9] (setting [19]), with HLA-A*69:01 (setting [19]), with HLA-B*51:01 (setting [19]) and in the assay with HLA-B*46:01 (setting [19]) was not below 20 µM in each case.
Take GVPELGAFF: the Kd was not below 20 µM in the assay with HLA-A*02:19 (setting [20]); not below 20 µM in the assay with HLA-A*02:03 (setting [20]); not below 20 µM with HLA-A*03:01 [4] (setting [20]); not below 20 µM in the assay with HLA-A*02:16 (setting [20]); 0.207 µM with HLA-A*26:01 [5] (source organism: Itapua hantavirus); not below 20 µM with HLA-A*02:11 (setting [20]). The Kd with HLA-A*02:12 (setting [20]), in the assay with HLA-A*02:01 (setting [20]), in the assay with HLA-B*57:01 [6] (setting [20]), with HLA-B*39:01 (setting [20]), in the assay with HLA-B*27:03 (setting [20]) and with HLA-B*18:01 (setting [20]) was not below 20 µM each time. The Kd with HLA-B*15:17 [9] (setting [20]), with HLA-A*69:01 (setting [20]), in the assay with HLA-B*51:01 (setting [20]) and with HLA-B*46:01 (setting [20]) was not below 20 µM throughout.
As to KSWPAAIDW, the dissociation constant Kd with HLA-B*57:01 [10] (setting [21]) stood at 0.032 µM; with HLA-B*15:17 [11] (setting [21]) it was 0.0013 µM; with HLA-B*58:01 [12] (setting [21]) it was 0.0015 µM.
Turning to IASLPTYLSS, in the assay with HLA-B*58:01 [2] (setting [17]), the dissociation constant (Kd) is not below 36.3 µM.
For IARISALGF, the values for the Kd in the assay with HLA-B*57:01 [10] (source organism: Brucella suis 1330), with HLA-B*15:17 [11] (source organism: Brucella suis) and in the assay with HLA-B*58:01 [12] (source organism: Brucella suis) were 0.088 µM, 0.0036 µM and 14 µM, respectively.
Consider LLIMGQLTW, for which the values for the dissociation constant (Kd) with HLA-B*53:01 (setting [16]) and with HLA-B*58:01 [2] (setting [16]) were 0.342 µM and 0.0111 µM, respectively.
As for LSSRAKLALD, the Kd in the assay with HLA-B*57:01 [1] (setting [17]) amounted to 7.42 µM; in the assay with HLA-B*58:01 [2] (setting [17]), 0.362 µM.
For AVFQEEQGW, the Kd with HLA-B*57:01 [1] (setting [17]) came out at 0.034 µM.
In the case of AAVEDEEFW, the equilibrium dissociation constant (Kd) in the assay with HLA-B*57:01 [1] (setting [22]) was found to be 1.1 µM; with HLA-B*53:01 (setting [22]), 0.0107 µM; with HLA-B*58:01 [2] (setting [22]) it was 0.00441 µM.
Take WTRPRYIEI: the figures for the dissociation constant Kd in the assay with HLA-B*57:01 [10] (setting [23]), with HLA-B*15:17 [11] (source organism: Listeria monocytogenes) and with HLA-B*58:01 [12] (setting [23]) were not below 20 µM, 0.27 µM and 0.429 µM, respectively.
As to WFQRIPLQW, the Kd with HLA-A*24:03 (source organism: Tai Forest virus - Cote d'Ivoire, Cote d'Ivoire, 1994) was 0.0003 µM; with HLA-A*02:19 (setting [24]), not below 20 µM; with HLA-A*02:03 (setting [24]), not below 20 µM; with HLA-A*68:02 (setting [24]), not below 20 µM; with HLA-A*03:01 [4] (setting [24]) it was not below 20 µM; with HLA-A*02:16 (setting [24]), not below 20 µM. Moreover, the Kd in the assay with HLA-A*02:11 (setting [24]), with HLA-A*02:12 (setting [24]), in the assay with HLA-A*02:01 (setting [24]), in the assay with HLA-B*57:01 [6] (setting [24]), with HLA-B*39:01 (setting [24]) and in the assay with HLA-B*27:03 (setting [24]) was not below 20 µM each time. In addition, the dissociation constant Kd with HLA-A*26:01 [8] (setting [24]), with HLA-B*18:01 (setting [24]), with HLA-B*15:17 [9] (setting [24]), with HLA-B*15:01, in the assay with HLA-A*69:01 (setting [24]) and with HLA-B*51:01 (setting [24]) was not below 20 µM each time. In addition, in the assay with HLA-B*46:01 (setting [24]), the Kd is not below 20 µM.
In the case of ILIGFLVLW, the Kd came to 1.25 µM in the assay with HLA-B*57:01 [1] (setting [17]) and 0.403 µM with HLA-B*58:01 [2] (setting [17]).
For VSSWEEVPYL, the values for the Kd with HLA-B*57:01 [1] (setting [16]), with HLA-A*01:01 and with HLA-B*58:01 [2] (setting [16]) were 0.384 µM, 12.4 µM and 0.256 µM, respectively.
